Measurements taken from publication PMC4854733 (The Journal of Experimental Medicine, 2016).

Columns and labels:
[1] = target: the molecule itself; assay: negative-stain electron microscopy
[2] = target: the molecule itself; assay: fluorescence polarisation
[3] = target: the molecule itself; assay: SEC

B1: ASC^CARD-SUMO (domain or fragment)
chain: AAKPGLHFIDQHRAALIARVTNVEWLLDALYGKVLTDEQYQAVRAEPTNPSKMRKLFSFTPAWNWTCKDLLLQALRESQSYLVEDLERS
Does B1 bind [1]?
Result: binds

B2: fluorescently labeled ASC^CARD-SUMO (domain or fragment)
chain: B1 chain
modifications: fluorophore joined by sortase at the C-terminal sortase motif
Does B2 bind [2]?
Result: binds

B3: GFP-ASC^CARD (domain or fragment)
chain: B1 chain
Does B3 bind [3]?
Result: binds
